Measured values from paper PMC4686714.

Molecular target: ENPP1-Fc fusion protein (not stated | not stated (human or mouse cDNA cloned)) (UniProt P22413)
Assay: SEC-MALS; SEC-MALLS/UV/RI, Superose 6 10/30 HR column, PBSplus buffer, 0.3 ml/min; ENPP1-Fc at 100 nM to 1 uM measured at the apex of the eluting peak; three detector approach

stoichiometry N: 2
Substance: ENPP1-Fc fusion protein (from UniProt P22413 98-925)
